Consider 32 sequences from the Immune Epitope Database (IEDB).

Assay [1] deals with HLA-A*03:01. Put plainly: IEDB peptide-MHC binding, purified MHC/competitive/radioactivity; filed as Kd, often an IC50 or EC50 that approximates it; ≥ and ≤ were set here for values at or beyond the usual limits of such assays.
For the next assay, the target named is HLA-A*11:01. The assay is described as above.
The target of a further assay is HLA-A*30:01. The assay is described as above.
In the next assay the target is HLA-A*02:02. The assay is described as above.
In a further assay the target is HLA-A*02:03. The description is as above.
In the next assay the target is HLA-A*02:06. Described as above.
A further assay deals with HLA-A*31:01. The description is as above.
Another assay concerns the target HLA-A*33:01. The description is as above.
The next assay addresses HLA-A*68:01. The assay is described as above.
Assay [2] deals with HLA-A*03:01. The assay is described as follows: IEDB peptide-MHC binding, purified MHC/direct/fluorescence; filed as Kd, often an IC50 or EC50 that approximates it; ≥ and ≤ were set here for values at or beyond the usual limits of such assays. To be noted: source organism: Francisella tularensis subsp. holarctica OSU18.
The next assay addresses HLA-A*02:01. The description is as above.
Another assay concerns the target HLA-A*69:01. The assay is described as above.
The mark [3] stands for this setting: source organism: Dengue virus 4 Philippines/H241/1956.
[4] abbreviates: source organism: Vaccinia virus WR.
[5] abbreviates: source organism: SARS coronavirus Tor2.
Where [6] appears, read: source organism: Lymphocytic choriomeningitis virus (strain Armstrong).
Where [7] appears, read: source organism: Entamoeba histolytica HM-1:IMSS.
The mark [8] stands for this setting: source organism: Encephalitozoon cuniculi.

In the case of KILAKAIFK, the Kd was 11.9 nM with HLA-A*03:01 [1] (setting [3]), 79.3 nM in the assay with HLA-A*11:01 (setting [3]) and 292 nM with HLA-A*30:01 (setting [3]).
LMTLDDLAI: the figures for the Kd in the assay with HLA-A*02:02 (setting [4]), in the assay with HLA-A*02:03 (setting [4]) and in the assay with HLA-A*02:06 (setting [4]) were 51.7 nM, 75.8 nM and 288 nM, respectively.
As to CLDAGINYV, the Kd with HLA-A*02:02 (setting [5]) amounted to 0.569 nM; with HLA-A*02:03 (setting [5]) it was 6.43 nM; in the assay with HLA-A*02:06 (setting [5]), 1.56 nM.
Consider KVVRVQRPA, for which, in the assay with HLA-A*30:01 (source organism: Dengue virus 1 Brazil/97-11/1997), the Kd was determined as 61.4 nM.
As for FTKDGKLDDT, the Kd with HLA-A*02:02 (setting [4]) worked out at 145 nM; with HLA-A*02:03 (setting [4]), 187 nM; in the assay with HLA-A*02:06 (setting [4]), 898 nM.
In the same order, the values of DVEKRILNT are 5820 nM, 6720 nM and at least 77100 nM.
Consider FTNDSIISH, for which the Kd in the assay with HLA-A*03:01 [1] (setting [6]) was 303 nM; with HLA-A*30:01 (setting [6]), at least 45500 nM; with HLA-A*31:01 (setting [6]), 1990 nM; with HLA-A*33:01 (setting [6]), 342 nM; with HLA-A*68:01 (setting [6]), 81.9 nM.
Turning to VAEHRFENM, the results for the dissociation constant (Kd) with HLA-A*02:02 (setting [4]), with HLA-A*02:03 (setting [4]) and with HLA-A*02:06 (setting [4]) were 7130 nM, 7160 nM and at least 47900 nM, respectively.
In the case of SLEATFIDV, the Kd in the assay with HLA-A*02:02 (setting [4]) came out at 34.9 nM; with HLA-A*02:03 (setting [4]), 80.4 nM; in the assay with HLA-A*02:06 (setting [4]), 10.3 nM.
In the case of ITDNGPMPYM, the figures for the Kd with HLA-A*02:02 (setting [4]), with HLA-A*02:03 (setting [4]) and in the assay with HLA-A*02:06 (setting [4]) were 828 nM, 1180 nM and 303 nM, respectively.
KMLEASTIY: the Kd with HLA-A*03:01 [2] is 190 nM.
As for TLIQYRQQL, the Kd in the assay with HLA-A*02:02 (setting [4]) was found to be 128 nM; with HLA-A*02:03 (setting [4]), 410 nM; in the assay with HLA-A*02:06 (setting [4]) it was 1880 nM.
In the same order, the values of KTPLYYLSGT are at least 21900 nM, 3110 nM and 1420 nM.
Turning to EINPFYQDV, the Kd in the assay with HLA-A*02:01 (setting [7]) worked out at 19500 nM; with HLA-A*69:01 (setting [7]) it was 7.6 nM.
Regarding EVIERINLLV, the results for the Kd in the assay with HLA-A*02:02 (setting [4]), in the assay with HLA-A*02:03 (setting [4]) and in the assay with HLA-A*02:06 (setting [4]) were 19700 nM, 3330 nM and 300 nM, respectively.
In the same order, the values of DAIKSNNHLT are at least 27400 nM, 17900 nM and at least 69800 nM.
In the same order, the values of LVMDKNHAI are 19 nM, 770 nM and 103 nM.
In the same order, the values of MLNRVQILM are 4.75 nM, 26.9 nM and 2560 nM.
As for MISTYPGNT, the Kd with HLA-A*02:02 (setting [4]) is 5490 nM; with HLA-A*02:03 (setting [4]) it was 229 nM; with HLA-A*02:06 (setting [4]), at least 25700 nM.
YLWFKRHVY: the Kd is 4010 nM with HLA-A*02:01 (setting [8]) and 3240 nM in the assay with HLA-A*69:01 (setting [8]).
Consider HVSISSCNG, for which the Kd with HLA-A*30:01 (setting [4]) is 502 nM.
For the sequence STQQNKLVI, the results for the Kd with HLA-A*02:02 (setting [4]), with HLA-A*02:03 (setting [4]) and with HLA-A*02:06 (setting [4]) were at least 53000 nM, 14400 nM and at least 77100 nM, respectively.
In the same order, the values of LLKCVSDSWL are 75.5 nM, 118 nM and 4730 nM.
As to TLIDFYLCFL, the Kd with HLA-A*02:02 (setting [5]) was found to be 0.0405 nM; in the assay with HLA-A*02:03 (setting [5]), 3.57 nM; with HLA-A*02:06 (setting [5]) it was 3.01 nM.
For AVKFAEESYT, the Kd with HLA-A*02:02 (setting [4]) was determined as 1760 nM; with HLA-A*02:03 (setting [4]) it was 1470 nM; with HLA-A*02:06 (setting [4]), 2270 nM.
In the case of GSRKSSSIL, the Kd in the assay with HLA-A*30:01 (source organism: Vaccinia virus Copenhagen) was determined as 1.58 nM.
For the sequence GVLPEETNI, the Kd is 17300 nM with HLA-A*02:02 (setting [4]), at least 20400 nM in the assay with HLA-A*02:03 (setting [4]) and 573 nM with HLA-A*02:06 (setting [4]).
HVLLPFYETL: the Kd in the assay with HLA-A*02:02 (setting [4]) was found to be 29.4 nM; in the assay with HLA-A*02:03 (setting [4]) it was 213 nM; with HLA-A*02:06 (setting [4]) it was 115 nM.
Consider KIKLILANK, for which the dissociation constant (Kd) with HLA-A*03:01 [1] (setting [4]) is 21.6 nM; in the assay with HLA-A*11:01 (setting [4]), 146 nM; in the assay with HLA-A*30:01 (setting [4]), 109 nM; in the assay with HLA-A*31:01 (setting [4]), 1.46 nM; in the assay with HLA-A*33:01 (setting [4]), at least 25600 nM; with HLA-A*68:01 (setting [4]), at least 28300 nM.
Sequence ATHKAPQPA registered a Kd with HLA-A*69:01 (source organism: Haemophilus influenzae) of 3820 nM.
In the case of RALKAYFTA, the Kd was found to be 2350 nM with HLA-A*02:02 (setting [4]), 204 nM in the assay with HLA-A*02:03 (setting [4]), 13.7 nM with HLA-A*02:06 (setting [4]) and 66.1 nM with HLA-A*30:01 (setting [4]).
With DLLLPSTDV, the Kd in the assay with HLA-A*02:02 (setting [4]) was 15100 nM; with HLA-A*02:03 (setting [4]) it was 3900 nM; with HLA-A*02:06 (setting [4]), 1060 nM.
